Results on 13 sequences are retold here after the supplement of paper PMC9170038.

For this data set, the system named is MS2 coat protein. The data set is described as follows: apparent KD of MS2 coat protein; designed switch direction (-1 OFF switch, 1 ON switch): 1; higher = weaker reporter binding. The essentials:
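SNAP-549-labelled MS2 coat protein was titrated, doubling from 0.7 or 1.5 nM to 3 µM, over designed RNA switches transcribed on Illumina chips by stalled E. coli RNA polymerase. Runs were done without input, with 200 uM small-molecule ligand, or with an oligonucleotide input. Apparent KD is the per-design median over clusters of curve-fitted normalised fluorescence.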

Where [1] appears, read: input ligand: microRNA oligo, concentration not stated.
The mark [2] stands for this setting: Eterna round: R95, input ligand: FMN 200 uM.
Setting [3] is: Eterna round: R95, input ligand: microRNA oligo, concentration not stated.
The mark [4] stands for this setting: Eterna round: R95, input ligand: none.

With “ACCCAAAGUAUAUGGGAACAAGCUUUUUAACAUGAGGAUCACCCAUGUACUCGUCUUAUAAGCAGUCGAAAGACUGC [hsa-mir-208a sensor: 100] (Eterna round: R96, puzzle: Sensor for hsa-mir-208a)”, the “apparent KD of MS2 coat protein” value runs as follows: (input ligand: FMN 200 uM) 0.557 µM; under setting [1], 0.0143 µM; (input ligand: none) 0.877 µM.

Consider “ACCCGCAGCCGUCAGGAUAUGUUCGCGUCAACAUGAGGAUCACCCAUGUGUGACAAGAAGUACACGCAGAAGGGAUCAAUGCGGG [Bienri] (Eterna round: R96, puzzle: Same State 2)”, for which the “apparent KD of MS2 coat protein” value by setting is: (input ligand: FMN 200 uM) 0.0134 µM; under setting [1], 0.0117 µM; (input ligand: none) 0.0178 µM.

As to “ACCCGCGACGGAGGAUAUGGGCACUCGGCGGAAUAAACCGCCAUAACAUGAGGAUCACCCAUGUCCCAGAAGGCCGUCGCAAUC [Zaonesdive] (Eterna round: R96, puzzle: Same State NG 2)”, the “apparent KD of MS2 coat protein” value turned out to be 0.107 µM (input ligand: FMN 200 uM), 0.303 µM under setting [1] and 2.62 µM (input ligand: none).

Regarding “ACGUGGAUAUCACAGGAUAUACUCAUAACUACAUGAGGAUCACCCAUGUAGCGGUAUUCCGAUGCGUAGAAGGGUGAUGGACCAC [Same State 2 - Mod of Artece v.2] (puzzle: Same State 2)”, the “apparent KD of MS2 coat protein” value by setting is: under setting [2], 0.0139 µM; under setting [3], 0.0149 µM; under setting [4], 0.0174 µM.

In the case of “ACUAGAAACGGGCAAUAACACAUGAGGAUCACCCAUGUGACACAGGAUAUAACCAGAUCAGAAAGUUAGAAGGGUGAGCCCGCA [Edraed] (Eterna round: R96, puzzle: Same State NG 3)”, the “apparent KD of MS2 coat protein” value came out at 0.0132 µM (input ligand: FMN 200 uM), 0.0259 µM under setting [1] and 0.035 µM (input ligand: none).

“ACUUGCUUUUUGCUCAUCUUAUGUCCGAAACAUGAGGAUCACCCAUGUGUAGAUUAUGUGUUGUUUUUGAUACGUGA [JR_SHM208A_Sub066] (puzzle: Sensor for hsa-mir-208a)”: the “apparent KD of MS2 coat protein” value was found to be 0.0249 µM under setting [2], 0.019 µM under setting [3] and 0.0269 µM under setting [4].

As to “AGAAAACAUGAGGAUCACCCAUGUAGAAAUAUGGGAGGAUAUACAAAGACGAAAGUCGAGGUAGAAGGCCUAAAGA [Mat - Same State 1 - Meechl mod - D122] (Eterna round: R96, puzzle: Same State 1)”, the “apparent KD of MS2 coat protein” value under setting [1] was determined as 0.0779 µM.

For “AGAAAACAUGAGGAUCACCCAUGUAUAGUGAAUACAGGAUAUCACCAACGGAAUAGUCGGUGAGAAGGGUGAUCGC [Zaxelate] (puzzle: Same State 1)”, the “apparent KD of MS2 coat protein” value by setting is: under setting [2], 0.0185 µM; under setting [3], 0.0113 µM; under setting [4], 0.0142 µM.

Take “AGAAAACAUGAGGAUCACCCAUGUAUAGUGAAUACAGGAUAUCACCGGCUGAAAAGCCGGUGAGAAGGGUGAUCGC [Atorenri] (puzzle: Same State 1)”: the “apparent KD of MS2 coat protein” value was found to be 0.149 µM under setting [2], 0.0186 µM under setting [3] and 0.0077 µM under setting [4].

For the sequence “AGAAGGAGAGCGCAGGAUAUCGAUAAUGACACAUGAGGAUCACCCAUGUUUGGUAUUAGAAGGAACGAGAAGGGUGAAAGGAGAA [knee_arm_01] (puzzle: Same State 2)”, the “apparent KD of MS2 coat protein” value is, setting by setting: under setting [2], 0.0592 µM; under setting [3], 0.0598 µM; under setting [4], 0.116 µM.

As for “AGACACAUGAGGAUCACCCAUGUCAUGAGCUUAGCUCGGGCACAGGAUAUCCGGUCCUAGAGACCGGAGAAGGGUGGCCGAAAA [Zara MOD] (Eterna round: R96, puzzle: Same State NG 3)”, the “apparent KD of MS2 coat protein” value by setting is: (input ligand: FMN 200 uM) 0.396 µM; under setting [1], 0.323 µM; (input ligand: none) 0.67 µM.

On to “AGAGCCGGCACCGAGGAUAUUCAUAUUAAAACAUGAGGAUCACCCAUGUAGGCCAGAAGGCCUUGGGAGAAGGCGGAUCGGCUCG [Xeonanis - 7] (Eterna round: R96, puzzle: Same State 2)”, for which the “apparent KD of MS2 coat protein” value worked out at 0.0325 µM (input ligand: FMN 200 uM), 0.335 µM under setting [1] and 0.559 µM (input ligand: none).

For the sequence “AGAGCCGGCACCGAGGAUAUUCAUAUUAAAACAUGAGGAUCACCCAUGUAGGCCAGAAGGCCUUGGGAGAAGGCGGAUCGGCUCG [Xeonanis - 7] (puzzle: Same State 2)”, the “apparent KD of MS2 coat protein” value by setting is: under setting [2], 0.0283 µM; under setting [3], 0.524 µM; under setting [4], 0.827 µM.
